Results taken from PMC2811157.

Molecular target: GST-tagged Polo-box domain (PBD) of Plk1 (UniProt P53350)
Assay: GST pull-down with anti-GFP immunoblot, band quantification
Settings: mitotic lysates of U2OS cell lines; immobilized GST-Plk1-PBD; input levels set to 100%; parent: est. 56; read off a plot

Sequence of UniProt P53350 (P53350 326-603): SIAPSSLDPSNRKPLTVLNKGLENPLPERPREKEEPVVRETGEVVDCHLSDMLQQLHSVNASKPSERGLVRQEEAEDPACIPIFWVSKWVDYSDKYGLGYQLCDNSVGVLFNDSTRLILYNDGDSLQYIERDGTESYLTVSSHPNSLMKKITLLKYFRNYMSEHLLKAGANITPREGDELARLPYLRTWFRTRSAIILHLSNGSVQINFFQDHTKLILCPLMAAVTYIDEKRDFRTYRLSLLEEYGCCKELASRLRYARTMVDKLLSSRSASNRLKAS

Row | response | Substance
1 | 10 % of input | GFP-tagged murine 53BP1, wild type (from UniProt P70399) S376A
2 | 78 % of input | GFP-tagged murine 53BP1, wild type (from UniProt P70399) S1620A
